B1: Anti-PD1 (VL5-VH6).IgG4-Linker7-TGFbRII (antibody)
heavy: QVQLVESGGGVVQPGRSLRLDCKASGITFSNSGMHWVRQAPGKGLEWVAVIWYDGSKRYYADSVKGRFTISRDNSKNTLFLQMNSLRAEDTAVYYCATNDDYWGQGTLVTVSSASTKGPSVFPLAPCSRSTSESTAALGCLVKDYFPEPVTVSWNSGALTSGVHTFPAVLQSSGLYSLSSVVTVPSSSLGTKTYTCNVDHKPSNTKVDKRVESKYGPPCPSCPAPEFLGGPSVFLFPPKPKDTLMISRTPEVTCVVVDVSQEDPEVQFNWYVDGVEVHNAKTKPREEQFNSTYRVVSVLTVLHQDWLNGKEYKCKVSNKGLPSSIEKTISKAKGQPREPQVYTLPPSQEEMTKNQVSLTCLVKGFYPSDIAVEWESNGQPENNYKTTPPVLDSDGSFFLYSRLTVDKSRWQEGNVFSCSVMHEALHNHYTQKSLSLSPGKDPGSGSVPLGSGSNPGSIPPHVQKSVNNDMIVTDNNGAVKFPQLCKFCDVRFSTCDNQKSCMSNCSITSICEKPQEVCVAVWRKNDENITLETVCHDPKLPYHDFILEDAASPKCIMKEKKKPGETFFMCSCSSDECNDNIIFSEEYNTSNPD
light: not shown
B2: Anti-PD1 (VL5-VH6).IgG4-Linker8-TGFbRII (antibody)
heavy: QVQLVESGGGVVQPGRSLRLDCKASGITFSNSGMHWVRQAPGKGLEWVAVIWYDGSKRYYADSVKGRFTISRDNSKNTLFLQMNSLRAEDTAVYYCATNDDYWGQGTLVTVSSASTKGPSVFPLAPCSRSTSESTAALGCLVKDYFPEPVTVSWNSGALTSGVHTFPAVLQSSGLYSLSSVVTVPSSSLGTKTYTCNVDHKPSNTKVDKRVESKYGPPCPSCPAPEFLGGPSVFLFPPKPKDTLMISRTPEVTCVVVDVSQEDPEVQFNWYVDGVEVHNAKTKPREEQFNSTYRVVSVLTVLHQDWLNGKEYKCKVSNKGLPSSIEKTISKAKGQPREPQVYTLPPSQEEMTKNQVSLTCLVKGFYPSDIAVEWESNGQPENNYKTTPPVLDSDGSFFLYSRLTVDKSRWQEGNVFSCSVMHEALHNHYTQKSLSLSPGKDPGSGGSVPLGSGGSNPGSIPPHVQKSVNNDMIVTDNNGAVKFPQLCKFCDVRFSTCDNQKSCMSNCSITSICEKPQEVCVAVWRKNDENITLETVCHDPKLPYHDFILEDAASPKCIMKEKKKPGETFFMCSCSSDECNDNIIFSEEYNTSNPD
light: not shown
B3: Anti-PD1 (VL5-VH6).IgG4-Linker10-TGFbRII (antibody)
heavy: QVQLVESGGGVVQPGRSLRLDCKASGITFSNSGMHWVRQAPGKGLEWVAVIWYDGSKRYYADSVKGRFTISRDNSKNTLFLQMNSLRAEDTAVYYCATNDDYWGQGTLVTVSSASTKGPSVFPLAPCSRSTSESTAALGCLVKDYFPEPVTVSWNSGALTSGVHTFPAVLQSSGLYSLSSVVTVPSSSLGTKTYTCNVDHKPSNTKVDKRVESKYGPPCPSCPAPEFLGGPSVFLFPPKPKDTLMISRTPEVTCVVVDVSQEDPEVQFNWYVDGVEVHNAKTKPREEQFNSTYRVVSVLTVLHQDWLNGKEYKCKVSNKGLPSSIEKTISKAKGQPREPQVYTLPPSQEEMTKNQVSLTCLVKGFYPSDIAVEWESNGQPENNYKTTPPVLDSDGSFFLYSRLTVDKSRWQEGNVFSCSVMHEALHNHYTQKSLSLSPGKDPGVLEREDVPTTSYPNPGSIPPHVQKSVNNDMIVTDNNGAVKFPQLCKFCDVRFSTCDNQKSCMSNCSITSICEKPQEVCVAVWRKNDENITLETVCHDPKLPYHDFILEDAASPKCIMKEKKKPGETFFMCSCSSDECNDNIIFSEEYNTSNPD
light: not shown
B4: Anti-PD1 (nVL1-nVH3).IgG4 (antibody, V domains shown)
VH: QVQLVESGGGVVQPGRSLRLDCKASGITFSNSGMHWVRQAPGKGLEWVAVIWYDGSKRYYADSVKGRFTISRDNSKNTLFLQMNSLRAEDTAVYYCATNNDYWGQGTLVTVSS
VL: EIVMTQSPATLSLSPGERATLSCRASQSVSSYLAWYQQKPGQAPRLLIYDASNRATGIPARFSGSGSGTDFTLTISSLEPEDFAVYYCQQYNNWPRTFGQGTKVEIK
notes: IgG4
B5: Anti-PD1 (nVL1-nVH3).IgG4 (S108P) (antibody, V domains shown)
VH: B4 VH
VL: B4 VL

What was measured:
[1] = target: TGF-β1 (UniProt P01137 279-390); experiment: cell-based or functional assay
[2] = target: T1, PD-1 Fc fusion protein (UniProt Q15116 25-167, limits assumed); experiment: SPR (Biacore), PD1-Fc immobilised on CM5, 1:1 Langmuir model with mass transfer
T1 construct: Antigen immobilised on the CM5 chip in all PD-1 SPR assays; also called PD-1 fused to human Fc region; PD-1-Fc antigen; not shown: human Fc region
Experimental: PD1-Fc antigen and reference antigen was immobilized on Biacore CM5 surface. […] Kinetics data was evaluated for 1:1 model: Langmuir with mass transfer.

TGF-β1, sequence (P01137 279-390 limits assumed): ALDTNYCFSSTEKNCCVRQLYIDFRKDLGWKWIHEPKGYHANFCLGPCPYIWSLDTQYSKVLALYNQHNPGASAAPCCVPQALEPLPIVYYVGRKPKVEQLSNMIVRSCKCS
T1 sequence (Q15116 25-167 limits assumed): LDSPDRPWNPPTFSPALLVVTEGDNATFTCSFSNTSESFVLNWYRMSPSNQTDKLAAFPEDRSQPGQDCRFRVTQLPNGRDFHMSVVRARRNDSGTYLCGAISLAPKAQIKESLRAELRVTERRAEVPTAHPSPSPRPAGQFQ

Binder	IC50, TGF-β1 neutralization activity (HEK-Blue TGF-β reporter cells) [1] [pM]	Kd [2] [pM]
B1	1.1	
B2	1.2	
B3	1.9	
B4		14.8
B5		14.1

Reference: patent US20240141045A1 (PRECIGEN, published 2024)
